Results reported in the supplement of paper PMC9170038.

Tested on: MS2 coat protein
Assay: apparent KD of MS2 coat protein; designed switch direction (-1 OFF switch, 1 ON switch): -1; higher = weaker reporter binding
Outline: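 The apparent KD reported per design is the median over clusters of curve fits to normalised cluster fluorescence. The RNA switches were transcribed on Illumina chips by stalled E. coli RNA polymerase. SNAP-549-labelled MS2 coat protein was titrated from 0.7 or 1.5 nM, doubling up to 3 µM, in Tris-HCl pH 7.5 buffer containing KCl, MgCl2, BSA, DTT, tRNA and Tween-20, with no input, 200 uM small-molecule ligand, or an oligonucleotide input.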

[1] = Eterna round: R95, input ligand: microRNA oligo, concentration not stated
[2] = input ligand: microRNA oligo, concentration not stated
[3] = Eterna round: R95, input ligand: FMN 200 uM
[4] = Eterna round: R95, input ligand: none

| Sequence | apparent KD of MS2 coat protein (input ligand: FMN 200 uM) | apparent KD of MS2 coat protein (input ligand: none) | apparent KD of MS2 coat protein [1] | other results |
| --- | --- | --- | --- | --- |
| GGAUAGUGAGGAUAUACCCAGAUUGAUGGACACGUCAGCGGGUAGAAGGCACAUGAGGAUCACCCAUGUGGCCU [Eternabot (L1) Solution 22] (Eterna round: R97, puzzle: Exclusion 4) | 18.4 nM | 14.1 nM | – | – |
| GCGUGGCGUAAGGAUAUCCAUACGGUAUAACCGGGAGAAGGUACGACAUGAGGAUCACCCAUGUGGCCUGGAAA [Sorimaat] (Eterna round: R97, puzzle: Exclusion 6) | 64.4 nM | 22.2 nM | – | – |
| ACAUUGGUAGUGAGGAUAUCGGUGUGAUAGAAUGCCGAGAAGGCACAUGAGGAUCACCCAUGUAAGAUUGGGCA [JR_BMEx4_Sub043] (Eterna round: R97, puzzle: Brourd's mod of Exclusion 4) | 299 nM | 186 nM | – | – |
| GGAUCGAAUGUGAGGAUAUACCACUGGAUACAGUGGUAGAAGGCACAUGAGGAUCACCCAUGUCUCUACGAUCC [Fiskers BMX 4 - 43] (puzzle: Brourd's mod of Exclusion 4) | – | – | 21 nM | – |
| GGGAAGAACCAACAAGUUAACAUGAGGAUCACCCAUGUUGACUUCAUGUGCACGCAAAGCGUGCAAGCUCGUCUUAU [AK-miRNA-r3-15] (Eterna round: R97, puzzle: Sensor, turn-off variant 1) | 17.9 nM | 17.2 nM | – | – |
| AGCUGUGGCCGAGGAUAUCCACAUGAGGAUCACCCAUGUGAAUACCCAAUUAAGGGAUAACCGUGGGAGAAGGCGGUCUCAGCA [Eli eng2 - 048] (Eterna round: R96, puzzle: Exclusion NG 2) | 80.9 nM | 167 nM | – | apparent KD of MS2 coat protein [2]: 112 nM |
| UUUCGUGUGCGGGCUUUUUACAUGAGGAUCACCCAUGUCCUCUGCUUGUCUUGUCUUGGGCUUUUUUUGGGUUCGGG [-19.4, -42 kcal, A 8%] (Eterna round: R97, puzzle: Sensor, turn-off variant 1) | 560 nM | 836 nM | – | – |
| AAUUUACAUGAGGAUCACCCAUGUGAGGAUAUAUGUUUUAAUUUUUUUUUUUUUUUUCAUAGAAGGCGCGUGAU [JR_Exc1_Sub047] (Eterna round: R97, puzzle: Exclusion 1) | 49.4 nM | 43.5 nM | – | – |
| CCUGAUCCACAGGAUAUGCUCAUCUAAUGAUGAGCAGAAGGGUGGACAUGAGGAUCACCCAUGUUUAUCAAUGG [Omei Ex6 D4] (Eterna round: R97, puzzle: Exclusion 6) | 804 nM | 125 nM | – | – |
| AGUCUGCUAGGAUAUACAUGAGGAUCACCCAUGUCUAUCAAUAGACUAUUAACCUGGUGUAGAAGGAGCUUGUA [Onatlacein] (puzzle: Exclusion 3) | – | – | 11.1 nM | – |
| AAUAACUUAGGAUAUACAUGAGGAUCACCCAUGUCCCACCCGUUACCCAUGACCAUAUGUAGAAGGAAGAAGAA [Exy#8] (Eterna round: R97, puzzle: Exclusion 3) | 28 nM | 35.7 nM | – | – |
| AAAACUCACGUAGGAUAUCAUUCCUUAAGGUAGUGAGAAGGACGUGACUACAUGUCCUUGAACAUGAGGAUCACCCAUGUAGGC [Cerama] (Eterna round: R96, puzzle: Exclusion NG 1) | – | – | – | apparent KD of MS2 coat protein [2]: 36.5 nM |
| UUCUUGGCAGGAUAUGCUCUCUUAGACAUGAGGAUCACCCAUGUGUUCAUUCUUUCUUUUGCAGAAGGGCCUUAAU [JR_E5_Sub045] (puzzle: Exclusion 5) | – | – | 52.6 nM | – |
| GGGAUGUCAGGAUAUACAUGAGGAUCACCCAUGUAGAGAUAAGAUAGGGAAAGAGUAGGUAGAAGGGACGAGAG [JR_Exclu3_Sub044] (puzzle: Exclusion 3) | – | – | 19.9 nM | apparent KD of MS2 coat protein [3]: 22 nM; apparent KD of MS2 coat protein [4]: 24.5 nM |
| GUGCAAUGAGGAUAUACGUAGGUGAACAUCUGUGUGCUCCUACAUGAGGAUCACCCAUGUAGAAGGCAUGUCAC [LRO-Excl2-17] (puzzle: Exclusion 2) | – | – | 13.1 nM | – |
| CCGGUAAAGGAGGAUAUAGGAGUCGAUAGACACCUAGAAGGCCUGACAUGAGGAUCACCCAUGUGUCCUACCGG [Fiskers Ex 6 - 93] (puzzle: Exclusion 6) | – | – | 14.1 nM | apparent KD of MS2 coat protein [3]: 23.7 nM; apparent KD of MS2 coat protein [4]: 13.5 nM |

| Sequence | apparent KD of MS2 coat protein (input ligand: FMN 200 uM) | apparent KD of MS2 coat protein (input ligand: none) | apparent KD of MS2 coat protein [1] | other results |
| --- | --- | --- | --- | --- |
| GGAUCGAAUGUGAGGAUAUGCAGGUCCUUGGAUCUGCAGAAGGCACAUGAGGAUCACCCAUGUGAUACCGAUCC [Mat - Exclusion 4 - Eli Mod - D42] (Eterna round: R97, puzzle: Brourd's mod of Exclusion 4) | 148 nM | 455 nM | – | – |
| GUAGAGUCAGGAUAUACAAAUAGAUCGAAAGAUCAAUCCAUACAUGAGGAUCACCCAUGUAGAAGGGACUCUAC [Eli x2 4.15] (Eterna round: R97, puzzle: Exclusion 2) | 20.5 nM | 16.7 nM | – | – |
| AGCUGUGGCCGAGGAUAUCUGUUCCAAAUAACCGACGUAUAGUCGGACAUGAGGAUCACCCAUGUAGAGAAGGCGGUCUCAGCA [Eli eng2 - 101] (Eterna round: R96, puzzle: Exclusion NG 2) | 136 nM | 63.9 nM | – | apparent KD of MS2 coat protein [2]: 38 nM |
| ACAUGAGGAUCACCCAUGUGAAAACAAUGGCUGACUAAGAGAUAGGAUAUAUGUGCAUAUCAAACAUAGAAGGGUCAUUACUGG [Deportation 88 - Jieux - Exclusion NG 3] (Eterna round: R96, puzzle: Exclusion NG 3) | 36.1 nM | 37.2 nM | – | apparent KD of MS2 coat protein [2]: 25.3 nM |
| GAUCCUUCUGUUAGGAUAUGCUUUGGGCUUCCGCAGCAGAAGGAACAUGAGGAUCACCCAUGUCAAAUAAAAUC [salish99_bmex4_r4_501] (Eterna round: R97, puzzle: Brourd's mod of Exclusion 4) | 25.5 nM | 27.1 nM | – | – |
| AGAAGUAGUAACCGAUCCUACAUGAGGAUCACCCAUGUAGCAAGACGUGCACGCGAAGCUCGUCAGACUACCAGAUG [salish99_TOv1_r3_020] (puzzle: Sensor v3, turn-off variant 1) | – | – | 252 nM | apparent KD of MS2 coat protein [3]: 159 nM; apparent KD of MS2 coat protein [4]: 242 nM |
| AGAAAUGCCCAUGGCCACAAGCUUUUUGCUUGUCUUACUACAUGAGGAUCACCCAUGUACCAUGGGCUCCUGAUAAU [Anxemaes] (puzzle: Sensor v3, turn-off variant 2) | – | – | 9.75 nM | apparent KD of MS2 coat protein [3]: 13.8 nM; apparent KD of MS2 coat protein [4]: 10.4 nM |
| GUCAGCUCGUGAGGAUAUAUAUACAUGAGGAUCACCCAUGUAAGAUCAGGCUUCGGCCAAUGUAUAUAGAAGGCACGAGCUGAC [ENG2/11-A1] (Eterna round: R96, puzzle: Exclusion NG 2) | 1350 nM | 636 nM | – | apparent KD of MS2 coat protein [2]: 1510 nM |
| GUCCAACAUGAGGAUCACCCAUGUCAGGAUAUGCGAAUUUCAUCAAAAGAUGAAAUUUGCAGAAGGGACUGGAC [Omei Ex1 A29] (Eterna round: R97, puzzle: Exclusion 1) | 44 nM | 23.3 nM | – | – |
| AAUUUAAUUAACAAGCUUUACAUGAGGAUCACCCAUGUGAUCAUGCUCGUCUUAUAAUUAAUUAAUUAAUUAAUUAA [Stov1/6-A1] (Eterna round: R97, puzzle: Sensor, turn-off variant 1) | 48.4 nM | 59.2 nM | – | – |
| AGUACUAACACCGUUGUGUUAGUACAAUAAGCUUGUGAAACAUGAGGAUCACCCAUGUCCUCAUAAGCUCGUCUUAU [salish99_TOv2_r3_071] (puzzle: Sensor v3, turn-off variant 2) | – | – | 784 nM | apparent KD of MS2 coat protein [3]: 16.3 nM; apparent KD of MS2 coat protein [4]: 16.2 nM |
| UCUCGACAUGAGGAUCACCCAUGUCAGGAUAUUGUGUUUGAGGUUUUUUACCUUUUGGCAAGAAGGGAUGUGUG [LRO-Excl1-21] (puzzle: Exclusion 1) | – | – | 24.9 nM | – |
| UCGACGUCGUCAGGAUAUAGUCUUAAUGUCAUGCUUUUGUUCGUACAUGAGGAUCACCCAUGUGGCUAGAAGGGACUAAAGUUU [JR_ExcNG2_Sub016] (Eterna round: R96, puzzle: Exclusion NG 2) | 16.1 nM | 26.9 nM | – | apparent KD of MS2 coat protein [2]: 11.7 nM |
| UGGGAACGAGGAUAUCGAUGGUGGAACAUGAGGAUCACCCAUGUAUGAGAUAGUGUAGUUCGAGAAGGCGUUAAGU [JR_E5_Sub053] (puzzle: Exclusion 5) | – | – | 54 nM | – |
| UUUUUGUCAGGAUAUGAGUAGUAGUACUAUUGUUUUAUUAUUUAGAAGGGACAUGAGGAUCACCCAUGUUUCUC [Bring Us a Shrubbery-01] (puzzle: Exclusion 4) | – | – | 14.4 nM | – |
| AGUACUAACACGAAAGUGUUUGUACAAUAAGCUUGUGAAACAUGAGGAUCACCCAUGUCCUCAUAAGCUCGUCUUAU [salish99_TOv2_r3_035] (puzzle: Sensor v3, turn-off variant 2) | – | – | 580 nM | apparent KD of MS2 coat protein [3]: 17.5 nM; apparent KD of MS2 coat protein [4]: 17.1 nM |
